The term Kd denotes the free concentration of one partner at which half of the binding sites on the other are occupied at equilibrium, for simple one-to-one binding. Lower therefore signals a tighter complex.

Where no end group is shown, it is not given here.

Test [1] concerns the target T1, Aβ monomers on the SPR chip: biotinylated Aβ 11–28 (also: biotin, position not given here).
T1 chain: EVHHQKLVFFAEDVGSNK
The experiment in a line: SPR.

Test [2] has as its target Aβ oligomers: soluble prefibrillar aggregates of biotinylated Aβ(1–42) (biotin (position not given)). The experiment in a line: SPR. A general note: SPR reads the build-up and loss of mass on a sensor chip optically.

Chain of Aβ oligomers: soluble prefibrillar aggregates of biotinylated Aβ(1–42) (biotin (position not given)) (P05067 672-713): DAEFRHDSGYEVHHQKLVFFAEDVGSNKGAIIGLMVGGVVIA

B1: Crenezumab, fully humanized anti-Aβ monoclonal IgG4 (antibody, V domains shown)
VH: EVQLVESGGGLVQPGGSLRLSCAASGFTFSSYGMSWVRQAPGKGLELVASINSNGGSTYYPDSVKGRFTISRDNAKNSLYLQMNSLRAEDTAVYYCASGDYWGQGTTVTVSS
VL: DIVMTQSPLSLPVTPGEPASISCRSSQSLVYSNGDTYLHWYLQKPGQSPQLLIYKVSNRFSGVPDRFSGSGSGTDFTLKISRVEAEDVGVYYCSQSTHVPWTFGQGTKVEIK
In the case of B1, the Kd is 3.2 nM in test [1] and 0.42 nM in test [2].

Values taken from article PMC5171940 (2016).
